Molecular target: T1, TRF1 (recombinant, in-house purified) (UniProt P54274)
T1 sequence: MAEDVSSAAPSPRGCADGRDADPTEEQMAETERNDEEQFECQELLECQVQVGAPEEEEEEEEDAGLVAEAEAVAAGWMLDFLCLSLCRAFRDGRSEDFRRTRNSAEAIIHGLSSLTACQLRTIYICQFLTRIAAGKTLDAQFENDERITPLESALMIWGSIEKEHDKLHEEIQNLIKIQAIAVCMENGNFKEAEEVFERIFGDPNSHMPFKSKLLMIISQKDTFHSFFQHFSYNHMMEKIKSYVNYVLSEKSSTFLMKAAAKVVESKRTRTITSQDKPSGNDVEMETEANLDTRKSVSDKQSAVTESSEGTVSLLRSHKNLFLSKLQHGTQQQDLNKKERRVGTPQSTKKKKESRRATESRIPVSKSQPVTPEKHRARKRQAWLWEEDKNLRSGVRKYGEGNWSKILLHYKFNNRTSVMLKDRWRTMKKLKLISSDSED
Assay: EMSA
Settings: 2 mM Mg2+, 50 mM Tris-Cl pH 8.0, 2 mM MgCl2, 150 mM KCl, 0.5 mM DTT, 10% glycerol, 5 nM oligonucleotide, 30 min room temperature, 1% agarose gel in 1x TBE at 4 C

**Q.** With “GACCAUGCUUAGGGUUAGGGUUAGGGUUAGGGUUAUCAUACAA / TTGTATGATAACCCTAACCCTAACCCTAACCCTAAGCATGGTC [Telomeric DNA:RNA hybrid]” as the sequence, how does the binding signal (fold lower affinity than TelDNA) (strand 1 is RNA, strand 2 is DNA) read?
**A.** 7

**Q.** For “GACCATGCTTATCCCCATTTGTATTATCCCCATTTCATACAAA (double strand) [Non-TelDNA]”, which binding signal (fold lower binding than TelDNA) is on record?
**A.** 5

**Q.** How did the binding signal (scale: fold) turn out when “GACCATGCTTAGGGTTAGGGTTAGGGTTAGGGTTATCATACAA (double strand) [TelDNA]” was run?
**A.** 1

— publication PMC11992676
